Biological target: commercially-prepared stable A-beta42 Oligomers (SynAging SAS) (human)
Assay: SPR; antibody covalently immobilized, stable A-beta42 oligomers (1 microM) injected

Sequence of commercially-prepared stable A-beta42 Oligomers (SynAging SAS) (human) (peptide, as listed by the source): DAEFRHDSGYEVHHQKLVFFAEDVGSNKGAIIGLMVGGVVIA

binding response units (BRUs), mean: 2.5 BRU
Substance: negative control IgG1 (antibody)
